The results in this text go back to patent US20260209385A1 (ANALYTICAL BIOSCIENCES SHANGHAI, published 2026).

Test [1] deals with T1, hCCR8 antigen on hCCR8-transfected 293T cells (human, UniProt P51685 1-355).
T1 construct: whole, on cells; also called human CCR8
Kind of test: flow cytometry on hCCR8-transfected 293T cells, FITC anti-human IgG Fc, median fluorescence, 4-parameter fit.
Procedure: (§1) Serially diluted antibodies or bispecifics were then added, with a maximum final concentration of 1000 nM and 3-fold dilution using PBS buffer. After incubating on ice for 30 mins, the plates were washed two times with FACS buffer (PBS buffer with 0.5 mg/ml BSA, 0.02% tween) and incubated with FITC anti-human IgG antibody (Goat Anti Human (IgG Fc) secondary antibody FITC, Abcam #ab97224, 1:1000) on ice for 30 mins, followed by two times wash with FACS buffer. […] Data were analyzed with GraphPad Prism. Median fluorescent intensity was plotted versus antibody concentration and EC50 was calculated by fitting the curve with the function of log (agonist) vs. response—Variable slope (four parameters).

For test [2], the target named is T2, hCD3 antigen on Jurkat clone E6-1 cells (human).
T2 construct: whole, on cells; also called human CD3; hCD3 (Jurkat cell)
T2 sequence (P07766 23-207, chain 1 of 4): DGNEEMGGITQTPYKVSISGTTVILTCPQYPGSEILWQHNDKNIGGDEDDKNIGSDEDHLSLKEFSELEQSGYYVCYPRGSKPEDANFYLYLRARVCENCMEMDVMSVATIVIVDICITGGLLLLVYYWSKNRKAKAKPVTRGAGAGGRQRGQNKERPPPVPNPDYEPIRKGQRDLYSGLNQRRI
T2 sequence (P09693 23-182, chain 2 of 4, further chain): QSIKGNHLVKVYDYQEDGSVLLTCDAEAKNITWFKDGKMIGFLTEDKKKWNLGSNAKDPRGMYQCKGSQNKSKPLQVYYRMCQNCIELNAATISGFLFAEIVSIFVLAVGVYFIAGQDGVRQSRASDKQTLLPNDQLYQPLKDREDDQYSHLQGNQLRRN
T2 sequence (P04234 22-171, chain 3 of 4, further chain): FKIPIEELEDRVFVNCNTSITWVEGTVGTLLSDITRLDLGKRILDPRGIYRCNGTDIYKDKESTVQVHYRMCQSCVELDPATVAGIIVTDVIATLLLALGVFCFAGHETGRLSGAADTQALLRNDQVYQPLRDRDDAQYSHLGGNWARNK
T2 sequence (P20963 22-164, chain 4 of 4, further chain): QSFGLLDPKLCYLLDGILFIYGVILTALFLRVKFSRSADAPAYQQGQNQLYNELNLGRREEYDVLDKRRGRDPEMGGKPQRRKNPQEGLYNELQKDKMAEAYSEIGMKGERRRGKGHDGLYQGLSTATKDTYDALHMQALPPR
In words: flow cytometry on Jurkat cells, FITC anti-human IgG Fc, median fluorescence, 4-parameter fit. (In general: In flow cytometry, cells or beads pass a laser one at a time.)
Procedure: as §1

T1 sequence (P51685 whole entry): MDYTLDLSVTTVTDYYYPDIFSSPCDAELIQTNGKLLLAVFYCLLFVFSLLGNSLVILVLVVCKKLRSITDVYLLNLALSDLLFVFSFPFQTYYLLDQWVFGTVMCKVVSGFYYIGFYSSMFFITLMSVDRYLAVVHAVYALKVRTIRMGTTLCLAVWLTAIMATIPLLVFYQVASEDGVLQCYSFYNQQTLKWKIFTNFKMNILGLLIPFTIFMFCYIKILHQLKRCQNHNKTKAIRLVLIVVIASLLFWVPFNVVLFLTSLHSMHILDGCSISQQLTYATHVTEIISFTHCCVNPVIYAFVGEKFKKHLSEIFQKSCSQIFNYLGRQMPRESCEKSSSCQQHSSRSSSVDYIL

B1: ABC752 (ABC752_hCCR8/hCD3_673, anti-hCCR8 x anti-hCD3 BsAb in ABC673 format) (bispecific antibody, human IgG1, kappa, N297A)
heavy 1: EVQLVESGGGLVQPGGSLRLSCAASGFPFNTFAMNWVRQAPGKGLEWLARIRSKSNNYATYYADSVKDRFTISRDNAKRSLYLQMNSLRAEDTAVYYCVRGKENNYGYAMDYWGQGTTVTVSSASTKGQVKPEAWLSHCPSPGPGHLQLVCHVSGFYPKPVWVMWMRGEQEQQGTQRSEILPSADGTWYLRATLEVAAGEAADLSCRVKHSSLEGQDIVLYWEGSDKTHTCPPCPAPELLGGPSVFLFPPKPKDTLMISRTPEVTCVVVDVSHEDPEVKFNWYVDGVEVHNAKTKPREEQYASTYRVVSVLTVLHQDWLNGKEYKCKVSNKALPAPIEKTISKAKGQPREPQVCTLPPSREEMTKNQVSLSCAVKGFYPSDIAVEWESNGQPENNYKTTPPVLDSDGSFFLVSKLTVDKSRWQQGNVFSCSVMHEALHNHYTQKSLSLSPGK
light 1: not shown
heavy 2: not shown
light 2: not shown
As usually defined, the EC50 is the midpoint of the concentration-response curve. A higher EC50 goes with a less potent agent. With B1, the results for the EC50 in test [1] and in test [2] were 2.9 nM and 2.57 nM, respectively.

B2: ABC138 (anti-hCCR8 parental antibody) (antibody, human IgG1, kappa, V domains shown)
VH: EVQLVESGGGLVQPGGSLRLSCAASGFPFNTFAMNWVRQAPGKGLEWLARIRSKSNNYATYYADSVKDRFTISRDNAKRSLYLQMNSLRAEDTAVYYCVRGKENNYGYAMDYWGQGTTVTVSS
VL: DIVMTQSPLSLPVTPGEPASISCRSSKSLLHSNANTYLYWFLQKPGQSPQLLIYRMSNLASGVPDRFSGSGSGTDFTLKISRVEAEDVGVYYCMQHVEYPFTFGGGTKLEIKR
B2: the EC50 in test [1] stood at 0.34 nM.

B3: ABC753 (ABC753_hCCR8/hCD3_675, anti-hCCR8 x anti-hCD3 BsAb in ABC675 format) (bispecific antibody, human IgG1, kappa, N297A)
heavy 1: EVQLVESGGGLVQPGGSLRLSCAASGFPFNTFAMNWVRQAPGKGLEWLARIRSKSNNYATYYADSVKDRFTISRDNAKRSLYLQMNSLRAEDTAVYYCVRGKENNYGYAMDYWGQGTTVTVSSASTKGQVKPEAWLSSCPSPGPGRLQLVCHVSGFYPKPVWVMWMRGEQEQQGTQLSEILPNANWTWYLRATLDVADGEAAGLSCRVKHSSLEGQDIILYWRGSGDKTHTCPPCPAPELLGGPSVFLFPPKPKDTLMISRTPEVTCVVVDVSHEDPEVKFNWYVDGVEVHNAKTKPREEQYASTYRVVSVLTVLHQDWLNGKEYKCKVSNKALPAPIEKTISKAKGQPREPQVCTLPPSREEMTKNQVSLSCAVKGFYPSDIAVEWESNGQPENNYKTTPPVLDSDGSFFLVSKLTVDKSRWQQGNVFSCSVMHEALHNHYTQKSLSLSPGK
light 1: not shown
heavy 2: not shown
light 2: not shown
As for B3, the EC50 in test [1] worked out at 2.14 nM; in test [2], 2.09 nM.
